Assay results published in publication PMC6597010 (Cell, 2019).

Molecular target: the molecule itself
Assay: cryo-EM structure

| Protein | stoichiometry N |
| --- | --- |
| C-terminal Strep-tag HsMCU (human mitochondrial calcium uniporter) (natural protein) VHQRIASWQNLGAVYCSTVVPSDDVTVVYQNGLPVISVRLPSRRERCQFTLKPISDSVGVFLRQLQEEDRGIDRVAIYSPDGVRVAASTGIDLLLLDDFKLVINDLTYHVRPPKRDLLSHENAATLNDVKTLVQQLYTTLCIEQHQLNKERELIERLEDLKEQLAPLEKVRIEISRKAEKRTTLVLWGGLAYMATQFGILARLTWWEYSWDIMEPVTYFITYGSAMAMYAYFVMTRQEYVYPEARDRQYLLFFHKGAKKSRFDLEKYNQLKDAIAQAEMDLKRLRDPLQVHLPLRQIGEKD | 4 |
| human MCU/EMRE complex (one channel: MCU tetramer with four EMRE subunits) (complex) chain 1: VHQRIASWQNLGAVYCSTVVPSDDVTVVYQNGLPVISVRLPSRRERCQFTLKPISDSVGVFLRQLQEEDRGIDRVAIYSPDGVRVAASTGIDLLLLDDFKLVINDLTYHVRPPKRDLLSHENAATLNDVKTLVQQLYTTLCIEQHQLNKERELIERLEDLKEQLAPLEKVRIEISRKAEKRTTLVLWGGLAYMATQFGILARLTWWEYSWDIMEPVTYFITYGSAMAMYAYFVMTRQEYVYPEARDRQYLLFFHKGAKKSRFDLEKYNQLKDAIAQAEMDLKRLRDPLQVHLPLRQIGEKD chain 2: VSAAWSGSGRSLVPSRSVIVTRSGAILPKPVKMSFGLLRVFSIVIPFLYVGTLISKNFAALLEEHDIFVPEDDDDDD | 2 |
